This data set deals with the molecule itself. The data set can be described thus: X-ray crystal structure of apo FAPα (SEQ ID NO:3), homodimer.

B1: FAPα (SEQ ID NO:3), secreted recombinant human fibroblast activation protein alpha, residues 27-760 of SEQ ID NO:1 with part of the gp67 signal sequence at the … (enzyme)
chain: ADPGRPSRVHNSEENTMRALTLKDILNGTFSYKTFFPNWISGQEYLHQSADNNIVLYNIETGQSYTILSNRTMKSVNASNYGLSPDRQFVYLESDYSKLWRYSYTATYYIYDLSNGEFVRGNELPRPIQYLCWSPVGSKLAYVYQNNIYLKQRPGDPPFQITFNGRENKIFNGIPDWVYEEEMLATKYALWWSPNGKFLAYAEFNDTDIPVIAYSYYGDEQYPRTINIPYPKAGAKNPVVRIFIIDTTYPAYVGPQEVPVPAMIASSDYYFSWLTWVTDERVCLQWLKRVQNVSVLSICDFREDWQTWDCPKTQEHIEESRTGWAGGFFVSTPVFSYDAISYYKIFSDKDGYKHIHYIKDTVENAIQITSGKWEAINIFRVTQDSLFYSSNEFEEYPGRRNIYRISIGSYPPSKKCVTCHLRKERCQYYTASFSDYAKYYALVCYGPGIPISTLHDGRTDQEIKILEENKELENALKNIQLPKEEIKKLEVDEITLWYKMILPPQFDRSKKYPLLIQVYGGPCSQSVRSVFAVNWISYLASKEGMVIALVDGRGTAFQGDKLLYAVYRKLGVYEVEDQITAVRKFIEMGFIDEKRIAIWGWSYGGYVSSLALASGTGLFKCGIAVAPVSSWEYYASVYTERFMGLPTKDDNLEHYKNSTVMARAEYFRNVDYLLIHGTADDNVHFQNSAQIAKALVNAQVDFQAMWYSDQNHGLSGLSTNHLYTHMTHFLKQCFSLSDHHHHHH
modifications: three Asn residues (chain A) or five Asn residues (chain B) carry covalently linked sugar molecules; positions not given
notes: Only residues 39-757 are seen in the structure; Expressed in Hi5 insect cells; also called Seprase; apo FAPα
Consider B1, for which the binding result is given as “binds”.

The values are drawn from patent publication US7297508 (Takeda / Millennium, dated 2007).
